The target in the test is T1, human GITR on cells (activated human T cells; 3A9-hGITR cells) (human, UniProt Q9Y5U5 26-241).
T1 chain: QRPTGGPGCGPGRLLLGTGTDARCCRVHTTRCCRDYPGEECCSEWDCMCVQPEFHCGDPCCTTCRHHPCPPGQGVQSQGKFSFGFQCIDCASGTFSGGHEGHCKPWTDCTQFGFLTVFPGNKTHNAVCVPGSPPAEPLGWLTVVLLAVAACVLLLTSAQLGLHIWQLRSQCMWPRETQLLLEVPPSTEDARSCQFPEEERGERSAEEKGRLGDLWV
The test is described as follows: FACS binding to activated human CD4 T cells. A general note: Flow cytometry measures light scatter and fluorescence of single cells or particles in a stream.

B1: anti-GITR-IgG2 (antibody)
heavy: QVQLVESGGGVVQPGRSLRLSCAASGFTFSSYGMHWVRQAPGKGLEWVAVIWYEGSNKYYADSVKGRFTISRDNSKNTLYLQMNSLRAEDTAVYYCARGGSMVRGDYYYGMDVWGQGTTVTVSSASTKGPSVFPLAPCSRSTSESTAALGCLVKDYFPEPVTVSWNSGALTSGVHTFPAVLQSSGLYSLSSVVTVPSSNFGTQTYTCNVDHKPSNTKVDKTVERKCCVECPPCPAPPVAGPSVFLFPPKPKDTLMISRTPEVTCVVVDVSHEDPEVQFNWYVDGVEVHNAKTKPREEQFNSTFRVVSVLTVVHQDWLNGKEYKCKVSNKGLPAPIEKTISKTKGQPREPQVYTLPPSREEMTKNQVSLTCLVKGFYPSDIAVEWESNGQPENNYKTTPPMLDSDGSFFLYSKLTVDKSRWQQGNVFSCSVMHEALHNHYTQKSLSLSPGK
light: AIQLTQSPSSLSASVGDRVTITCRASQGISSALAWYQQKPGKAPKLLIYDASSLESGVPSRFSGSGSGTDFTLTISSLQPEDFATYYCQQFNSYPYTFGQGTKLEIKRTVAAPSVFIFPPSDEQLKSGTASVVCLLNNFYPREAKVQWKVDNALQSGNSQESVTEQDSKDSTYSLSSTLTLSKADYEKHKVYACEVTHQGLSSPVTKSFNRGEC
The molecule B1 showed a 50% effective concentration (EC50) of 0.277 nM.

B2: anti-GITR-IgG2-IgG1.1 (antibody)
heavy: QVQLVESGGGVVQPGRSLRLSCAASGFTFSSYGMHWVRQAPGKGLEWVAVIWYEGSNKYYADSVKGRFTISRDNSKNTLYLQMNSLRAEDTAVYYCARGGSMVRGDYYYGMDVWGQGTTVTVSSASTKGPSVFPLAPCSRSTSESTAALGCLVKDYFPEPVTVSWNSGALTSGVHTFPAVLQSSGLYSLSSVVTVPSSNFGTQTYTCNVDHKPSNTKVDKTVERKCCVECPPCPAPPVAGPSVFLFPPKPKDTLMISRTPEVTCVVVDVSHEDPEVKFNWYVDGVEVHNAKTKPREEQYNSTYRVVSVLTVLHQDWLNGKEYKCKVSNKALPSSIEKTISKAKGQPREPQVYTLPPSREEMTKNQVSLTCLVKGFYPSDIAVEWESNGQPENNYKTTPPVLDSDGSFFLYSKLTVDKSRWQQGNVFSCSVMHEALHNHYTQKSLSLSPG
light: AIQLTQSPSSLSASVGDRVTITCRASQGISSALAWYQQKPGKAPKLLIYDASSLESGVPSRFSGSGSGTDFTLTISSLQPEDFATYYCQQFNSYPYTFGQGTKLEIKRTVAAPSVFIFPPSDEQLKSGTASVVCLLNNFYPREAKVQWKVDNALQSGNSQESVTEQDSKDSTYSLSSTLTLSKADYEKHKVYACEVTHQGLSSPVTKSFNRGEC
On to B2, for which the concentration giving a half-maximal response (EC50) was 0.163 nM.

As a reminder, the EC50 is the concentration needed to bring the measured effect to its halfway point. A lower EC50 goes with a more potent agent.

Source of the values: patent publication US20180333502A1 (published 2018).
